Experimental findings from the supplement of paper PMC9112550, “Optimization of the antimicrobial peptide Bac7 by deep mutational scanning” (BMC Biology, 2022) are described below.
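Note: peptides expressed intracellularly from a pBAD plasmid library in pooled LB shake-flask culture, induced with 0.3% L-arabinose, DNA abundance read by NGS, three biological replicates, DESeq2 with apeglm shrinkage.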

This series concerns Escherichia coli TOP10. The series can be described thus: shrunken log2 fold change of peptide-encoding DNA abundance (4.5 h post-induction vs induction); higher = less antimicrobial activity (less host growth inhibition). Conditions: time post-induction: 4.5 h; library: site-saturation at positions 5, 18, 19, 20.
With RRIRLRPPRLPRPRPRPCTCPRP, the “shrunken log2 fold change” value was -0.238.

Take RRIRCRPPRLPRPRPRPVVKPRP: the “shrunken log2 fold change” value turned out to be 0.0236.

For the sequence RRIRPRPPRLPRPRPRPDLQPRP, the “shrunken log2 fold change” value is -0.221.

Regarding RRIRPRPPRLPRPRPRPWQNPRP, the “shrunken log2 fold change” value is -0.136.

Regarding RRIRYRPPRLPRPRPRPAIGPRP, the “shrunken log2 fold change” value is -0.105.

RRIRMRPPRLPRPRPRPYNGPRP: the “shrunken log2 fold change” value was -0.289.

Consider RRIRMRPPRLPRPRPRPRLYPRP, for which the “shrunken log2 fold change” value is 0.212.

For RRIRGRPPRLPRPRPRPSYFPRP, the “shrunken log2 fold change” value is -0.0109.

For the sequence RRIRARPPRLPRPRPRPCAHPRP, the “shrunken log2 fold change” value is -0.0288.

For RRIRERPPRLPRPRPRPIYFPRP, the “shrunken log2 fold change” value is -0.378.

Regarding RRIRDRPPRLPRPRPRPREKPRP, the “shrunken log2 fold change” value stood at 0.342.

Regarding RRIRTRPPRLPRPRPRPLHWPRP, the “shrunken log2 fold change” value was found to be 0.111.

RRIRTRPPRLPRPRPRPSPKPRP: the “shrunken log2 fold change” value stood at 2.46.

RRIRYRPPRLPRPRPRPGWSPRP: the “shrunken log2 fold change” value was -0.135.

On to RRIRSRPPRLPRPRPRPLRDPRP, for which the “shrunken log2 fold change” value worked out at 0.439.

As for RRIRVRPPRLPRPRPRPLRKPRP, the “shrunken log2 fold change” value stood at 0.317.

Consider RRIRIRPPRLPRPRPRPNHRPRP, for which the “shrunken log2 fold change” value is 0.0615.

On to RRIRWRPPRLPRPRPRPAHSPRP, for which the “shrunken log2 fold change” value is 0.321.

Regarding RRIRPRPPRLPRPRPRPLDQPRP, the “shrunken log2 fold change” value amounted to 0.0885.

Turning to RRIRHRPPRLPRPRPRPGDGPRP, the “shrunken log2 fold change” value was 0.209.

For the sequence RRIRTRPPRLPRPRPRPREPPRP, the “shrunken log2 fold change” value amounted to 1.21.

Turning to RRIRYRPPRLPRPRPRPQMAPRP, the “shrunken log2 fold change” value was -1.66.

RRIRDRPPRLPRPRPRPHERPRP: the “shrunken log2 fold change” value came to 0.0603.

For RRIRPRPPRLPRPRPRPWPFPRP, the “shrunken log2 fold change” value is 0.108.

Regarding RRIRMRPPRLPRPRPRPWYRPRP, the “shrunken log2 fold change” value is -0.277.

As to RRIRSRPPRLPRPRPRPTEFPRP, the “shrunken log2 fold change” value was 0.153.

For the sequence RRIRPRPPRLPRPRPRPSKKPRP, the “shrunken log2 fold change” value was -0.108.

As to RRIRFRPPRLPRPRPRPYTCPRP, the “shrunken log2 fold change” value is -0.22.

Consider RRIRCRPPRLPRPRPRPEQFPRP, for which the “shrunken log2 fold change” value amounted to 0.0372.

RRIRKRPPRLPRPRPRPMIFPRP: the “shrunken log2 fold change” value is -0.132.

With RRIRERPPRLPRPRPRPSPAPRP, the “shrunken log2 fold change” value was -0.0943.

For RRIRMRPPRLPRPRPRPGIGPRP, the “shrunken log2 fold change” value was 0.638.

As to RRIRTRPPRLPRPRPRPSEIPRP, the “shrunken log2 fold change” value is -0.242.

On to RRIRIRPPRLPRPRPRPLWKPRP, for which the “shrunken log2 fold change” value was determined as 0.145.

As for RRIRRRPPRLPRPRPRPMYIPRP, the “shrunken log2 fold change” value is -0.73.

Turning to RRIRIRPPRLPRPRPRPIVTPRP, the “shrunken log2 fold change” value was -0.429.

Consider RRIRQRPPRLPRPRPRPDTQPRP, for which the “shrunken log2 fold change” value is -0.401.

Consider RRIRARPPRLPRPRPRPIFSPRP, for which the “shrunken log2 fold change” value is -0.00994.

Take RRIRCRPPRLPRPRPRPPAEPRP: the “shrunken log2 fold change” value came to 1.18.

Consider RRIRKRPPRLPRPRPRPADGPRP, for which the “shrunken log2 fold change” value amounted to 0.223.

Take RRIRRRPPRLPRPRPRPRKPPRP: the “shrunken log2 fold change” value came to 0.153.

On to RRIRNRPPRLPRPRPRPTEYPRP, for which the “shrunken log2 fold change” value was -0.203.

For the sequence RRIRRRPPRLPRPRPRPEPCPRP, the “shrunken log2 fold change” value turned out to be 0.388.

Turning to RRIRMRPPRLPRPRPRPQLKPRP, the “shrunken log2 fold change” value amounted to 1.42.

Take RRIRLRPPRLPRPRPRPLNNPRP: the “shrunken log2 fold change” value is -0.593.

With RRIRKRPPRLPRPRPRPGSSPRP, the “shrunken log2 fold change” value was -0.0653.

Regarding RRIRLRPPRLPRPRPRPQWMPRP, the “shrunken log2 fold change” value was -0.0896.

As to RRIRTRPPRLPRPRPRPDIEPRP, the “shrunken log2 fold change” value is -0.117.

Consider RRIRVRPPRLPRPRPRPFQEPRP, for which the “shrunken log2 fold change” value came to 0.00442.

RRIRLRPPRLPRPRPRPISKPRP: the “shrunken log2 fold change” value was -0.125.

RRIRGRPPRLPRPRPRPIGMPRP: the “shrunken log2 fold change” value is 0.244.

RRIRKRPPRLPRPRPRPAQTPRP: the “shrunken log2 fold change” value stood at 0.246.

For the sequence RRIRLRPPRLPRPRPRPSDNPRP, the “shrunken log2 fold change” value is -0.49.

On to RRIRVRPPRLPRPRPRPDVDPRP, for which the “shrunken log2 fold change” value was -0.367.

RRIRGRPPRLPRPRPRPHGYPRP: the “shrunken log2 fold change” value was -0.0362.

Regarding RRIRARPPRLPRPRPRPYPCPRP, the “shrunken log2 fold change” value is -0.417.

RRIRYRPPRLPRPRPRPVYTPRP: the “shrunken log2 fold change” value was -0.499.

Take RRIRTRPPRLPRPRPRPWLKPRP: the “shrunken log2 fold change” value is 0.18.

For the sequence RRIRVRPPRLPRPRPRPWAWPRP, the “shrunken log2 fold change” value is -0.00558.

Turning to RRIRCRPPRLPRPRPRPHSWPRP, the “shrunken log2 fold change” value was -0.301.

As for RRIRQRPPRLPRPRPRPNICPRP, the “shrunken log2 fold change” value came out at 0.0129.

As for RRIRTRPPRLPRPRPRPNCMPRP, the “shrunken log2 fold change” value is -0.16.

With RRIRHRPPRLPRPRPRPLAMPRP, the “shrunken log2 fold change” value stood at 0.287.

As to RRIRNRPPRLPRPRPRPRYPPRP, the “shrunken log2 fold change” value is -0.121.

For RRIRKRPPRLPRPRPRPGMQPRP, the “shrunken log2 fold change” value is -0.00459.

Consider RRIRGRPPRLPRPRPRPFTHPRP, for which the “shrunken log2 fold change” value stood at 0.0753.

As to RRIRVRPPRLPRPRPRPGQYPRP, the “shrunken log2 fold change” value is -0.113.

Take RRIRYRPPRLPRPRPRPARTPRP: the “shrunken log2 fold change” value is -0.298.

For RRIRSRPPRLPRPRPRPICSPRP, the “shrunken log2 fold change” value came out at 0.119.

For RRIRERPPRLPRPRPRPPTCPRP, the “shrunken log2 fold change” value was -0.0707.

RRIRMRPPRLPRPRPRPHGPPRP: the “shrunken log2 fold change” value was found to be 0.752.

In the case of RRIRMRPPRLPRPRPRPMNAPRP, the “shrunken log2 fold change” value is -0.0277.

For RRIRMRPPRLPRPRPRPSPTPRP, the “shrunken log2 fold change” value amounted to 1.15.

With RRIRRRPPRLPRPRPRPYNNPRP, the “shrunken log2 fold change” value was -0.76.

As to RRIRLRPPRLPRPRPRPRHQPRP, the “shrunken log2 fold change” value was -0.254.

RRIRDRPPRLPRPRPRPAGSPRP: the “shrunken log2 fold change” value is 0.19.

For RRIRNRPPRLPRPRPRPDHKPRP, the “shrunken log2 fold change” value is -0.398.

On to RRIRFRPPRLPRPRPRPWVHPRP, for which the “shrunken log2 fold change” value stood at 0.0589.

For RRIRWRPPRLPRPRPRPGDIPRP, the “shrunken log2 fold change” value was -0.133.

Turning to RRIRYRPPRLPRPRPRPCTIPRP, the “shrunken log2 fold change” value is -0.118.

On to RRIRFRPPRLPRPRPRPYLMPRP, for which the “shrunken log2 fold change” value was -0.687.

Consider RRIRVRPPRLPRPRPRPGDFPRP, for which the “shrunken log2 fold change” value is 0.0156.

As to RRIRCRPPRLPRPRPRPIYLPRP, the “shrunken log2 fold change” value is -0.457.

In the case of RRIRQRPPRLPRPRPRPAFRPRP, the “shrunken log2 fold change” value stood at 0.204.

RRIRMRPPRLPRPRPRPCWHPRP: the “shrunken log2 fold change” value was -0.0624.

Consider RRIRCRPPRLPRPRPRPEISPRP, for which the “shrunken log2 fold change” value is -0.0399.

Turning to RRIRRRPPRLPRPRPRPNDMPRP, the “shrunken log2 fold change” value was found to be 0.13.

Consider RRIRPRPPRLPRPRPRPVFKPRP, for which the “shrunken log2 fold change” value was -0.189.

Regarding RRIRCRPPRLPRPRPRPELVPRP, the “shrunken log2 fold change” value is 0.423.

In the case of RRIRSRPPRLPRPRPRPVQLPRP, the “shrunken log2 fold change” value came to 0.348.

For the sequence RRIRYRPPRLPRPRPRPYDKPRP, the “shrunken log2 fold change” value was -1.24.

With RRIRPRPPRLPRPRPRPEAGPRP, the “shrunken log2 fold change” value amounted to 0.566.

On to RRIRDRPPRLPRPRPRPGYGPRP, for which the “shrunken log2 fold change” value is -0.0481.

With RRIRHRPPRLPRPRPRPWICPRP, the “shrunken log2 fold change” value is -0.0191.

As for RRIRCRPPRLPRPRPRPNHEPRP, the “shrunken log2 fold change” value was -0.15.

Regarding RRIRQRPPRLPRPRPRPEPTPRP, the “shrunken log2 fold change” value was determined as 0.877.

With RRIRIRPPRLPRPRPRPSQYPRP, the “shrunken log2 fold change” value is -0.555.

As for RRIRCRPPRLPRPRPRPSIHPRP, the “shrunken log2 fold change” value is -0.929.

Consider RRIRWRPPRLPRPRPRPFQTPRP, for which the “shrunken log2 fold change” value was -0.00783.

As to RRIRSRPPRLPRPRPRPMVDPRP, the “shrunken log2 fold change” value stood at 0.197.

Take RRIRKRPPRLPRPRPRPPGMPRP: the “shrunken log2 fold change” value was determined as 0.473.

Turning to RRIRSRPPRLPRPRPRPQMPPRP, the “shrunken log2 fold change” value worked out at 0.189.

Regarding RRIRKRPPRLPRPRPRPAIFPRP, the “shrunken log2 fold change” value stood at 0.233.

As for RRIRERPPRLPRPRPRPNKHPRP, the “shrunken log2 fold change” value is -0.575.

On to RRIRTRPPRLPRPRPRPEYAPRP, for which the “shrunken log2 fold change” value was -0.00931.

Consider RRIRIRPPRLPRPRPRPVINPRP, for which the “shrunken log2 fold change” value was -0.198.

For RRIRFRPPRLPRPRPRPNQRPRP, the “shrunken log2 fold change” value amounted to 0.269.

For RRIRVRPPRLPRPRPRPYWRPRP, the “shrunken log2 fold change” value is -0.323.

Take RRIRERPPRLPRPRPRPVWWPRP: the “shrunken log2 fold change” value amounted to 0.149.

For RRIRARPPRLPRPRPRPDATPRP, the “shrunken log2 fold change” value came out at 1.6.

Consider RRIRNRPPRLPRPRPRPCRDPRP, for which the “shrunken log2 fold change” value is -0.0123.

With RRIRMRPPRLPRPRPRPCPQPRP, the “shrunken log2 fold change” value is 0.0219.

With RRIRHRPPRLPRPRPRPMWGPRP, the “shrunken log2 fold change” value is -0.234.

RRIRGRPPRLPRPRPRPGPQPRP: the “shrunken log2 fold change” value was 0.719.

On to RRIRIRPPRLPRPRPRPDMNPRP, for which the “shrunken log2 fold change” value was -0.146.

On to RRIRKRPPRLPRPRPRPAIHPRP, for which the “shrunken log2 fold change” value is -0.0696.

RRIRWRPPRLPRPRPRPYSPPRP: the “shrunken log2 fold change” value was -1.1.

As for RRIRGRPPRLPRPRPRPAASPRP, the “shrunken log2 fold change” value is 0.947.

Turning to RRIRQRPPRLPRPRPRPLHLPRP, the “shrunken log2 fold change” value was -0.617.

For the sequence RRIRSRPPRLPRPRPRPHSNPRP, the “shrunken log2 fold change” value was -0.358.

RRIRSRPPRLPRPRPRPDMNPRP: the “shrunken log2 fold change” value is 0.0168.

Turning to RRIRERPPRLPRPRPRPVLFPRP, the “shrunken log2 fold change” value is -0.141.

On to RRIRTRPPRLPRPRPRPTICPRP, for which the “shrunken log2 fold change” value was -0.401.

Consider RRIRIRPPRLPRPRPRPNQPPRP, for which the “shrunken log2 fold change” value was -0.0903.

Take RRIRLRPPRLPRPRPRPLPCPRP: the “shrunken log2 fold change” value worked out at 0.142.
